Experimental data published in article PMC2920228.

How the values were obtained:
[1] = molecular target: AgsA (aggregation-suppressing protein, small heat shock protein), wild type, His-tagged (Salmonella enterica serovar Typhimurium); assay: FRET or BRET; data not shown; subunit exchange of fluorescein- and rhodamine-labelled AgsA at 45°C, 40 min
[2] = molecular target: AgsA (aggregation-suppressing protein, small heat shock protein), wild type, His-tagged (Salmonella enterica serovar Typhimurium); assay: SEC; Superdex 200 XK 16/70, 20 mM Tris-HCl pH 8.0, 1 mM EDTA, 100 mM NaCl, run at 25°C; apparent mass from a calibration curve
[3] = molecular target: ΔC11, C-terminal 11 AA truncated AgsA, His-tagged (Salmonella enterica serovar Typhimurium); assay: SEC
[4] = molecular target: ΔC11, C-terminal 11 AA truncated AgsA, His-tagged (Salmonella enterica serovar Typhimurium); assay: SEC; Superdex 200 XK 16/70, 20 mM Tris-HCl pH 8.0, 1 mM EDTA, 100 mM NaCl, run at 37°C
[5] = molecular target: ΔC11, C-terminal 11 AA truncated AgsA, His-tagged (Salmonella enterica serovar Typhimurium); assay: SEC; Superdex 200 XK 16/70, 20 mM Tris-HCl pH 8.0, 1 mM EDTA, 100 mM NaCl, run at 42°C

| decrease in donor fluorescence after 40 min [1] [%] | stoichiometry N [2] [subunits] | Substance | stoichiometry N [3] [subunits] | stoichiometry N [4] [subunits] | stoichiometry N [5] [subunits] |
| --- | --- | --- | --- | --- | --- |
| 40 | 22 | AgsA (aggregation-suppressing protein, small heat shock protein), wild type, His-tagged (natural protein) |  |  |  |
|  |  | ΔC11, C-terminal 11 AA truncated AgsA, His-tagged (domain or fragment) | 3 | 2 | 2 |
